What was measured:
Assay in all cases: two-hybrid library CCNG1;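 further: natural log of median RNA to DNA barcode read ratio; higher means stronger binding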
[1] = target: T1, 4H3427-bH
T1 chain: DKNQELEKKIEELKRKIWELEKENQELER

[2] = target: T2, 4H72-bH
T2 chain: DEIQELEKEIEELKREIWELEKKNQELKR

[3] = target: T3, 4H2697-bH
T3 chain: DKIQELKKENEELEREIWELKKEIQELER

[4] = target: T4, 4H967-bH
T4 chain: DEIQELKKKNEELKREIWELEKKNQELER

[5] = target: T5, 4H568-bH
T5 chain: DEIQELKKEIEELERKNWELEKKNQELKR

[6] = target: T6, 4H3843-bN
T6 chain: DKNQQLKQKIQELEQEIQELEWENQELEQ

[7] = target: T7, 4H3782-bH
T7 chain: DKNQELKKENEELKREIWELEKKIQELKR

[8] = target: T8, 4H462-bH
T8 chain: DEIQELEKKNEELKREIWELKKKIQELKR

[9] = target: T9, 4H4001-bH
T9 chain: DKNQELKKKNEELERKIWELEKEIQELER

[10] = target: T10, 4H3843-bH
T10 chain: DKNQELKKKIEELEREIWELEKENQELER

[11] = target: T11, 4H338-bH
T11 chain: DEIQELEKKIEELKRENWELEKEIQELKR

[12] = target: T12, O4-bN
T12 chain: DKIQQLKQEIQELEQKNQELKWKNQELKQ

[13] = target: T13, 4H754-bH
T13 chain: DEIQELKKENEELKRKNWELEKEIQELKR

[14] = target: T14, 4H883-bH
T14 chain: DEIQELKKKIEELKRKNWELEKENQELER

[15] = target: T15, 4H3354-bH
T15 chain: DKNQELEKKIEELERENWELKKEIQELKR

[16] = target: T16, 4H454-bH
T16 chain: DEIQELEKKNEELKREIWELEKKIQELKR

[17] = target: T17, 4H2667-bH
T17 chain: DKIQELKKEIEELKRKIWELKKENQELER

[18] = target: T18, 4H3606-bH
T18 chain: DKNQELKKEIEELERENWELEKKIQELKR

[19] = target: T19, 4H607-bH
T19 chain: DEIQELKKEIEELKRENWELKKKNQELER

[20] = target: T20, 4H908-bH
T20 chain: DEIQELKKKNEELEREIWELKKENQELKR

[21] = target: T21, 4H3189-bH
T21 chain: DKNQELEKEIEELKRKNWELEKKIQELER

[22] = target: T22, 4H918-bH
T22 chain: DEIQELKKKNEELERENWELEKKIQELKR

[23] = target: T23, 4H687-bH
T23 chain: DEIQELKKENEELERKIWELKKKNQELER

[24] = target: T24, 4H331-bH
T24 chain: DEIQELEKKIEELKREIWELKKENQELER

[25] = target: T25, 4H3855-bH
T25 chain: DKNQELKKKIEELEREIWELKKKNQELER

[26] = target: T26, 4H370-bH
T26 chain: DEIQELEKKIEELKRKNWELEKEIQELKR

[27] = target: T27, 4H2729-bH
T27 chain: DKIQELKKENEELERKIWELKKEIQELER

[28] = target: T28, 4H797-bH
T28 chain: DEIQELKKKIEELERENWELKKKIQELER

[29] = target: T29, 4H953-bH
T29 chain: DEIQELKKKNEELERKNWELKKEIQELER

[30] = target: T30, 4H3112-bH
T30 chain: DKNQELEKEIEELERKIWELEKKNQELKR

[31] = target: T31, 4H717-bH
T31 chain: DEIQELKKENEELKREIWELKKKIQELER

[32] = target: T32, 4H3185-bH
T32 chain: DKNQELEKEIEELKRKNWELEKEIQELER

## DKIQELKKEIEELKRKIWELKKENQELER [4H2667-bH]
[1]
  interaction score: 1.38
[2]
  interaction score: 0.612
[3]
  interaction score: 1.31
[4]
  interaction score: -0.166
[5]
  interaction score: 0.0192
[6]
  interaction score: 1.56
[7]
  interaction score: -0.0673
[8]
  interaction score: 1.01
[9]
  interaction score: -2.94
[10]
  interaction score: 1.84
[11]
  interaction score: 1.42
[12]
  interaction score: -0.678
[13]
  interaction score: -0.933
[14]
  interaction score: 0.434
[15]
  interaction score: -0.302
[16]
  interaction score: 0.0385
[17]
  interaction score: 0.801
[18]
  interaction score: 1.83
[19]
  interaction score: 0.145
[20]
  interaction score: -1.3
[21]
  interaction score: -0.454
[22]
  interaction score: -2.64
[23]
  interaction score: -0.168
[24]
  interaction score: 1.71
[25]
  interaction score: 0.693
[26]
  interaction score: 0.226
[27]
  interaction score: 1.75
[28]
  interaction score: -0.539
[29]
  interaction score: 0.0882
[30]
  interaction score: -0.422
[31]
  interaction score: -0.859
[32]
  interaction score: 0.789
